Assay results: US20090149339A1
Ends that are not written are not given here. * marks the point of attachment. Biotin = O=C1N[C@H]2[C@H](CS[C@H]2CCCCC(=O)*)N1

Experiments:
[1] = molecular target: GST polypeptide alone (not a fusion protein) [GST: P08515]; assay: G assay, immobilized GST alone (background control)
[2] = molecular target: GST-PSD95 PDZ domain fusion protein (human post-synaptic density protein 95 AA387-724; PDZ domains 1-3 of 3) (human) [GST: P08515]; assay: G assay, peptide titrated on immobilized GST-PDZ, saturation fit (apparent affinity)
[3] = molecular target: GST-NeDLG PDZ domain fusion protein (presynaptic protein sao102, neuroendocrine-dlg; PDZ domains 1-2 of 3) [GST: P08515]; assay: as above
[4] = molecular target: GST-DLG1 PDZ domain fusion protein (human homolog of Drosophila discs large protein AA275-477; PDZ domains 1-2 of 3) (human) [GST: P08515]; assay: as above
Chain of GST-DLG1 PDZ domain fusion protein (human homolog of Drosophila discs large protein AA275-477; PDZ domains 1-2 of 3) (human) [GST: P08515] (P08515 1-218, tags or fused parts left off): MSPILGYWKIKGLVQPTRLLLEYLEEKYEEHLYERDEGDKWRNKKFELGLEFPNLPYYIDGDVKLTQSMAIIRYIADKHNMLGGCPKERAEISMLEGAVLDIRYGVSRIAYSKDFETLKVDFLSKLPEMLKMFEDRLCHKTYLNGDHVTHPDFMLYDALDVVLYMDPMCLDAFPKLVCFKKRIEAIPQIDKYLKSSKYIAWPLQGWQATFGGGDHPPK

Chain of GST-NeDLG PDZ domain fusion protein (presynaptic protein sao102, neuroendocrine-dlg; PDZ domains 1-2 of 3) [GST: P08515] (P08515 1-218, tags or fused parts left off): as above
Chain of GST-PSD95 PDZ domain fusion protein (human post-synaptic density protein 95 AA387-724; PDZ domains 1-3 of 3) (human) [GST: P08515] (P08515 1-218, tags or fused parts left off): as above
Chain of GST polypeptide alone (not a fusion protein) [GST: P08515] (P08515 whole entry, the tested form may be a part): as the sequence (P08515 1-218, tags or fused parts left off) above

Binder	OD (binding to GST alone) [1] [OD units]	Kd [2] [µM]	Kd [3] [µM]	Kd [4] [µM]
ISGTPTSTMVHGMTSSSSVV (not fully specified) [CLASP-2 C-terminal PL peptide AA2L (C-terminal 20 amino acids), biotinylated]	< 0.2	45	7.5	–
Biotin-KDITSDSENSNFRNEIQSLV [CD95 (Apo-1/Fas) C-terminal PL peptide AA13L, biotinylated]	–	–	–	54
